Molecular target: HLA-DQ molecule DQB1*0502 (human)
Assay: inhibition of radiolabeled peptide binding to purified HLA-DQ

Point of comparison: PARLFKAFVLDSDNL [Que a 1 (16-30) peptide PARLFKAFVLDSDNL], IC50 0.0079 µM. Against it:
- EDTNIYNSNEAFKVE [Cup a 1 (316-330) peptide EDTNIYNSNEAFKVE] — 310-fold higher, 2.42 µM
- EKALWIIFSQNMNIK [Cup s 1 (86-100) peptide EKALWIIFSQNMNIK] — 1600-fold higher, 13 µM
- ASEVFKAVEAYLVAH [Que a 1 (141-155) peptide ASEVFKAVEAYLVAH] — 670-fold higher, 5.31 µM
- NMNIKLKMPLYVAGH [Cup s 1 (96-110) peptide NMNIKLKMPLYVAGH] — 2600-fold higher, 20.8 µM

Molecular target: HLA-DQ molecule DQB1*0202 (human)
Assay: as above

Point of comparison: GSDEKNLALSIKYNK [Dac g 2 (11-25) peptide GSDEKNLALSIKYNK], IC50 7.2 µM. Against it:
- EDTNIYNSNEAFKVE [Cup a 1 (316-330) peptide EDTNIYNSNEAFKVE] — within 1.5-fold, 7.54 µM
- EKALWIIFSQNMNIK [Cup s 1 (86-100) peptide EKALWIIFSQNMNIK] — within 1.5-fold, 5.56 µM
- PARLFKAFVLDSDNL [Que a 1 (16-30) peptide PARLFKAFVLDSDNL] — 23-fold lower, 0.31 µM
- ASEVFKAVEAYLVAH [Que a 1 (141-155) peptide ASEVFKAVEAYLVAH] — 7.6-fold lower, 0.953 µM
- NMNIKLKMPLYVAGH [Cup s 1 (96-110) peptide NMNIKLKMPLYVAGH] — 6.9-fold higher, 50 µM

Molecular target: HLA-DQ molecule DQB1*0503 (human)
Assay: as above

Point of comparison: GSDEKNLALSIKYNK [Dac g 2 (11-25) peptide GSDEKNLALSIKYNK], IC50 50 µM. Against it:
- EKALWIIFSQNMNIK [Cup s 1 (86-100) peptide EKALWIIFSQNMNIK] — 26-fold lower, 1.93 µM
- PARLFKAFVLDSDNL [Que a 1 (16-30) peptide PARLFKAFVLDSDNL] — 310-fold lower, 0.161 µM
- ASEVFKAVEAYLVAH [Que a 1 (141-155) peptide ASEVFKAVEAYLVAH] — 25-fold lower, 2.04 µM
- NMNIKLKMPLYVAGH [Cup s 1 (96-110) peptide NMNIKLKMPLYVAGH] — 4.3-fold lower, 11.7 µM

Molecular target: HLA-DQ molecule DQB1*0602 (human)
Assay: as above

Point of comparison: PARLFKAFVLDSDNL [Que a 1 (16-30) peptide PARLFKAFVLDSDNL], IC50 2.6 µM. Against it:
- EDTNIYNSNEAFKVE [Cup a 1 (316-330) peptide EDTNIYNSNEAFKVE] — 3.2-fold higher, 8.29 µM
- GSDEKNLALSIKYNK [Dac g 2 (11-25) peptide GSDEKNLALSIKYNK] — 20-fold lower, 0.13 µM
- NMNIKLKMPLYVAGH [Cup s 1 (96-110) peptide NMNIKLKMPLYVAGH] — 5.6-fold higher, 14.5 µM

Molecular target: HLA DQ molecule DQB1*0602 (human)
Assay: inhibition of radiolabeled peptide binding to purified HLA class II

Point of comparison: PAAAYATATPAAATA [Lol p 5 1 peptide, position 306, PAAAYATATPAAATA (Peptide ID 3324.1184)], IC50 0.224 µM. Against it:
- IAFFRKEPLKECGGI [Lol p 11 peptide, position 116, IAFFRKEPLKECGGI (Peptide ID 3337.0029)] — 220-fold higher, 50 µM
- GAYETYKFIPSLEAA [Pha a 5 peptide, position 201, GAYETYKFIPSLEAA (Peptide ID 3324.1433)] — 3.8-fold higher, 0.846 µM
- MRNVFDDVVPADFKV [Lol p 2 peptide, position 76, MRNVFDDVVPADFKV (Peptide ID 3337.0030)] — 180-fold higher, 39.5 µM
- IKSDKPLKGPFNFRF [Lol p 2 peptide, position 56, IKSDKPLKGPFNFRF (Peptide ID 3324.1140)] — 220-fold higher, 50 µM
- RYANPIAFFRKEPLK [Lol p 11 peptide, position 111, RYANPIAFFRKEPLK (Peptide ID 3324.1138)] — 43-fold higher, 9.74 µM
- DGVWEIKSDKPLKGP [Lol p 2 peptide, position 51, DGVWEIKSDKPLKGP (Peptide ID 3324.1139)] — 120-fold higher, 26.6 µM
- LWEVKSAKPLTGPMN [Lol p 3 peptide, position 51, LWEVKSAKPLTGPMN (Peptide ID 3337.0031)] — 18-fold higher, 3.95 µM

Molecular target: HLA DQ molecule DQB1*0503 (human)
Assay: as above

Point of comparison: FSGVAATESAYLAYR [Der f 1 (136-150) peptide FSGVAATESAYLAYR, Peptide ID 3324.0666], IC50 4.19 µM. Against it:
- NGNELLLDLSLTKVN [Fel d 1 2 (36-50) peptide NGNELLLDLSLTKVN, Peptide ID 3324.1055] — 2.2-fold higher, 9.37 µM
- GSCWAFSGVAATESA [Der f 1 (131-145) peptide GSCWAFSGVAATESA, Peptide ID 3324.0670] — 1.9-fold higher, 7.93 µM
- NALSVLDKIYTSPLC [Fel d 1 1 (78-92) peptide NALSVLDKIYTSPLC, Peptide ID 3324.1050] — within 1.5-fold, 5.83 µM

Molecular target: HLA DQ molecule DQB1*0202 (human)
Assay: as above

Point of comparison: NGNELLLDLSLTKVN [Fel d 1 2 (36-50) peptide NGNELLLDLSLTKVN, Peptide ID 3324.1055], IC50 8.02 µM. Against it:
- AETCPIFYDVFFAVA [Fel d 1 2 (21-35) peptide AETCPIFYDVFFAVA, Peptide ID 3324.1056] — 3.8-fold lower, 2.1 µM
- AIVYYSMYGHIKKMA [Alt a 7 (6-20) peptide AIVYYSMYGHIKKMA, Peptide ID 3324.0085] — within 1.5-fold, 6.24 µM

Molecular target: HLA DQ molecule DQB1*0502 (human)
Assay: as above

Point of comparison: DAYVATLTEALRVIA [Lol p 5 1 peptide, position 151, DAYVATLTEALRVIA (Peptide ID 3324.1167)], IC50 50 µM. Against it:
- IAFFRKEPLKECGGI [Lol p 11 peptide, position 116, IAFFRKEPLKECGGI (Peptide ID 3337.0029)] — 35-fold lower, 1.44 µM
- PAAAYATATPAAATA [Lol p 5 1 peptide, position 306, PAAAYATATPAAATA (Peptide ID 3324.1184)] — 6.7-fold lower, 7.45 µM
- DSYKFIPTLVAAVKQ [Lol p 5 1 peptide, position 236, DSYKFIPTLVAAVKQ (Peptide ID 3324.1165)] — the same, 50 µM
- SDAKTLVLNIKYTRP [Lol p 3 peptide, position 11, SDAKTLVLNIKYTRP (Peptide ID 3324.1142)] — the same, 50 µM
- IKSDKPLKGPFNFRF [Lol p 2 peptide, position 56, IKSDKPLKGPFNFRF (Peptide ID 3324.1140)] — within 1.5-fold, 38.2 µM
- RYANPIAFFRKEPLK [Lol p 11 peptide, position 111, RYANPIAFFRKEPLK (Peptide ID 3324.1138)] — 63-fold lower, 0.793 µM

Molecular target: HLA DQ molecule DQB1*0503 (human)
Assay: as above
Remark: another data set of the same source

Point of comparison: DSYKFIPTLVAAVKQ [Lol p 5 1 peptide, position 236, DSYKFIPTLVAAVKQ (Peptide ID 3324.1165)], IC50 4.64 µM. Against it:
- IAFFRKEPLKECGGI [Lol p 11 peptide, position 116, IAFFRKEPLKECGGI (Peptide ID 3337.0029)] — 5.1-fold lower, 0.903 µM
- DAYVATLTEALRVIA [Lol p 5 1 peptide, position 151, DAYVATLTEALRVIA (Peptide ID 3324.1167)] — 11-fold higher, 50 µM
- GAYETYKFIPSLEAA [Pha a 5 peptide, position 201, GAYETYKFIPSLEAA (Peptide ID 3324.1433)] — 13-fold lower, 0.358 µM
- MRNVFDDVVPADFKV [Lol p 2 peptide, position 76, MRNVFDDVVPADFKV (Peptide ID 3337.0030)] — 13-fold lower, 0.347 µM
- SDAKTLVLNIKYTRP [Lol p 3 peptide, position 11, SDAKTLVLNIKYTRP (Peptide ID 3324.1142)] — 7.3-fold higher, 33.9 µM
- IKSDKPLKGPFNFRF [Lol p 2 peptide, position 56, IKSDKPLKGPFNFRF (Peptide ID 3324.1140)] — 11-fold higher, 50 µM
- RYANPIAFFRKEPLK [Lol p 11 peptide, position 111, RYANPIAFFRKEPLK (Peptide ID 3324.1138)] — 2.9-fold lower, 1.6 µM

Molecular target: HLA DQ molecule DQB1*0602 (human)
Assay: as above
Remark: another data set of the same source

Point of comparison: FSGVAATESAYLAYR [Der f 1 (136-150) peptide FSGVAATESAYLAYR, Peptide ID 3324.0666], IC50 2.02 µM. Against it:
- GSCWAFSGVAATESA [Der f 1 (131-145) peptide GSCWAFSGVAATESA, Peptide ID 3324.0670] — 1.5-fold lower, 1.33 µM
- NALSVLDKIYTSPLC [Fel d 1 1 (78-92) peptide NALSVLDKIYTSPLC, Peptide ID 3324.1050] — 2-fold lower, 1 µM
- AIVYYSMYGHIKKMA [Alt a 7 (6-20) peptide AIVYYSMYGHIKKMA, Peptide ID 3324.0085] — 1.7-fold higher, 3.35 µM

Molecular target: HLA DQ molecule DQB1*0202 (human)
Assay: as above
Remark: another data set of the same source

Point of comparison: IAFFRKEPLKECGGI [Lol p 11 peptide, position 116, IAFFRKEPLKECGGI (Peptide ID 3337.0029)], IC50 26.2 µM. Against it:
- PAAAYATATPAAATA [Lol p 5 1 peptide, position 306, PAAAYATATPAAATA (Peptide ID 3324.1184)] — 39-fold lower, 0.679 µM
- DSYKFIPTLVAAVKQ [Lol p 5 1 peptide, position 236, DSYKFIPTLVAAVKQ (Peptide ID 3324.1165)] — 4.5-fold lower, 5.86 µM
- DAYVATLTEALRVIA [Lol p 5 1 peptide, position 151, DAYVATLTEALRVIA (Peptide ID 3324.1167)] — 15-fold lower, 1.8 µM
- SDAKTLVLNIKYTRP [Lol p 3 peptide, position 11, SDAKTLVLNIKYTRP (Peptide ID 3324.1142)] — within 1.5-fold, 25.7 µM
- RYANPIAFFRKEPLK [Lol p 11 peptide, position 111, RYANPIAFFRKEPLK (Peptide ID 3324.1138)] — within 1.5-fold, 26 µM
- DGVWEIKSDKPLKGP [Lol p 2 peptide, position 51, DGVWEIKSDKPLKGP (Peptide ID 3324.1139)] — 49-fold lower, 0.53 µM
- LWEVKSAKPLTGPMN [Lol p 3 peptide, position 51, LWEVKSAKPLTGPMN (Peptide ID 3337.0031)] — 11-fold lower, 2.44 µM

Molecular target: HLA DQ molecule DQB1*0502 (human)
Assay: as above
Remark: another data set of the same source

Point of comparison: NGNELLLDLSLTKVN [Fel d 1 2 (36-50) peptide NGNELLLDLSLTKVN, Peptide ID 3324.1055], IC50 2.87 µM. Against it:
- GSCWAFSGVAATESA [Der f 1 (131-145) peptide GSCWAFSGVAATESA, Peptide ID 3324.0670] — 3.2-fold higher, 9.32 µM
- FSGVAATESAYLAYR [Der f 1 (136-150) peptide FSGVAATESAYLAYR, Peptide ID 3324.0666] — 2.4-fold lower, 1.21 µM

From patent publication US20150004189A1 (published 2015)
